Here are results for four molecules from patent US20240335558A1, “ISOLATED POLYPEPTIDE AND USE THEREOF” (GLYCO-THERAPY BIOTECHNOLOGY CO., LTD., priority 2021, published 2024).

What all share (format): biochemical
The subject of data set [1] is Trastuzumab-(Fucα1,6)(Galβ1,4)GlcNAc. The data set can be described thus: Transfer of GDP-FAmP4Biotin to Trastuzumab-(Fucα1,6)(Galβ1,4)GlcNAc by different HpFTs. To be noted: donor GDP-FAmP4Biotin 1 mM, enzyme 0.5 mg/mL, 30° C., 1 h; FIG. 2. On the procedure: To 40 mM Tris-HCl (pH 7.5) buffer were added Trastuzumab-(Fucα1,6)(Galβ1,4)GlcNAc (2 mg/mL final), GDP-FAmP4Biotin (1 mM final), MgCl2 (20 mM final), and different HpFT enzymes (HpFT-4HR, HpFT-4HR(M4), HpFT-4HR(M7), HpFT-6HR, HpFT-3HR, HpFT-2HR, HpFT-1HR or HpFT-0HR) (0.5 mg/mL final) in sequence, and the resulting mixed solution was allowed to react at 30° C. for 1 h. Three parallels were set up for each group. After the reaction time point was reached, to the reaction solution was added 10 mM LacNA, and the reaction was terminated by a desalting column (Zeba™ Spin Desalting Columns/2 ml/40K, Thermo Fisher Scientific), and finally mass spectrometry was carried out and % of conversion was calculated. % of conversion=(MAR0 peak intensity*0+MAR1peak intensity*1+MAR2 peak intensity*2)/2* (MAR0 peak intensity+MAR1 peak intensity+MAR2 peak intensity)*100%.

Data set [2] relates to Trastuzumab-(Fucα1,6)(GalNAzβ1,4)GlcNAc. The data set can be described thus: Transfer of GDP-FAmP4Biotin to Trastuzumab-(Fucα1,6)(GalNAzβ1,4)GlcNAc by different HpFTs. As to conditions: donor GDP-FAmP4Biotin 1 mM, enzyme 0.5 mg/mL, 30° C., 3 h; FIG. 3.
Data set [3] relates to Trastuzumab-(GalNAzβ1,4)GlcNAc. Description: Transfer of GDP-FAmP4Biotin to Trastuzumab-(GalNAzβ1,4)GlcNAc by different HpFTs. As to conditions: donor GDP-FAmP4Biotin 1 mM, enzyme 0.5 mg/mL, 30° C., 3 h; FIG. 4.
A further data set relates to Trastuzumab-G2F. The data set can be described thus: Transfer of GDP-FAmP4Biotin to Trastuzumab-G2F by different HpFTs (% of conversion by MS). To be noted: donor GDP-FAmP4Biotin 1 mM, enzyme 0.5 mg/mL, 30° C., 3 h; FIG. 1. On the procedure:
To 40 mM Tris-HCl (pH 7.5) buffer were added Trastuzumab-G2F (2 mg/mL final), GDP-FAmP4Biotin (1 mM final), MgCl2 (20 mM final), and different HpFT enzymes (HpFT-4HR, HpFT-4HR(M4), HpFT-4HR(M7), HpFT-6HR, HpFT-3HR, HpFT-2HR, HpFT-1HR, or HpFT-0HR) (0.5 mg/mL final) in sequence, and the resulting mixed solution was allowed to react at 30° C. for 3 h. Three parallels were set up for each group. After the reaction time point was reached, to the reaction solution was added 10 mM LacNAc (N-acetyl-D-lactosamine), and the reaction was terminated by a desalting column (Zeba™ Spin Desalting Columns/2 ml/40K, Thermo Fisher Scientific), and finally mass spectrometry was carried out and % of conversion was calculated. % of conversion=(MAR0 peak intensity*0+MAR1peak intensity*1+MAR2 peak intensity*2+MAR3 peak intensity*3+MAR4 peak intensity*4)/4* (MAR0 peak intensity+MAR1 peak intensity+MAR2 peak intensity+MAR3 peak intensity+MAR4 peak intensity)*100%.

B1: HpFT-6HR: HpFT variant: catalytically active domain, six heptapeptide repeat sequences and C-terminus fused His tag (protein)
chain: MFQPLLDAFIESASIEKMVSKSPPPPLKIAVANWWGDEEIKEFKKSVLYFILSQRYAITLHQNPNESSDLVFSNPLGAARKILSYQNTKRVFYTGENESPNFNLFDYAIGFDELDFNDRYLRMPLYYAHLHYEAELVNDTTAPYKLKDNSLYALKKPSHHFKENHPNLCAVVNDESDLLKRGFASFVASNANAPMRNAFYDALNSIEPVTGGGSVRNTLGYKVGNKSEFLSQYKFNLCFENSQGYGYVTEKILDAYFSHTIPIYWGSPSVAKDFNPKSFVNVHDFNNFDEAIDYIKYLHTHPNAYLDMLYENPLNTLDGKAYFYQDLSFKKILDFFKTILENDTIYHNNPFIFYRDLHEPLISIDDLRVNYDDLRVNYDDLRVNYDDLRVNYDDLRVNYDDLRVNYLEHHHHHH
modifications: Catalytically active domain of Helicobacter pylori Alpha-(1,3)-fucosyltransferase (GenBank No.AAD07710.1) with 6 heptapeptide repeats and a C-terminal His tag
Consider B1, for which the “catalytic activity as compared with HpFT-4HR (% of conversion)” value (“catalytic activity … (% of conversion)” for short) in data set [1] was “no obvious activity change”; in data set [2], “little activity change”; in data set [3], “little activity change”.

B2: HpFT-3HR: H. pylori α-1,3-fucosyltransferase variant: catalytically active domain, three heptapeptide repeat sequences and C-terminus fused His tag (protein)
chain: MFQPLLDAFIESASIEKMVSKSPPPPLKIAVANWWGDEEIKEFKKSVLYFILSQRYAITLHQNPNESSDLVFSNPLGAARKILSYQNTKRVFYTGENESPNFNLFDYAIGFDELDFNDRYLRMPLYYAHLHYEAELVNDTTAPYKLKDNSLYALKKPSHHFKENHPNLCAVVNDESDLLKRGFASFVASNANAPMRNAFYDALNSIEPVTGGGSVRNTLGYKVGNKSEFLSQYKFNLCFENSQGYGYVTEKILDAYFSHTIPIYWGSPSVAKDFNPKSFVNVHDFNNFDEAIDYIKYLHTHPNAYLDMLYENPLNTLDGKAYFYQDLSFKKILDFFKTILENDTIYHNNPFIFYRDLHEPLISIDDLRVNYDDLRVNYDDLRVNYLEHHHHHH
modifications: Catalytically active domain of Helicobacter pylori Alpha-(1,3)-fucosyltransferase (GenBank No.AAD07710.1) with 3 heptapeptide repeats and a C-terminal His tag
With B2, the “catalytic activity … (% of conversion)” value (in the data set with Trastuzumab-G2F; in data set [1]; in data set [2]; in data set [3]) was “significantly improved catalytic activity” each time.

B3: HpFT-0HR: HpFT variant: catalytically active domain and C-terminus fused His tag, no heptapeptide repeat (protein)
chain: MFQPLLDAFIESASIEKMVSKSPPPPLKIAVANWWGDEEIKEFKKSVLYFILSQRYAITLHQNPNESSDLVFSNPLGAARKILSYQNTKRVFYTGENESPNFNLFDYAIGFDELDFNDRYLRMPLYYAHLHYEAELVNDTTAPYKLKDNSLYALKKPSHHFKENHPNLCAVVNDESDLLKRGFASFVASNANAPMRNAFYDALNSIEPVTGGGSVRNTLGYKVGNKSEFLSQYKFNLCFENSQGYGYVTEKILDAYFSHTIPIYWGSPSVAKDFNPKSFVNVHDFNNFDEAIDYIKYLHTHPNAYLDMLYENPLNTLDGKAYFYQDLSFKKILDFFKTILENDTIYHNNPFIFYRDLHEPLISILEHHHHHH
modifications: Catalytically active domain of Helicobacter pylori Alpha-(1,3)-fucosyltransferase (GenBank No.AAD07710.1) with a C-terminal His tag
Regarding B3, the “catalytic activity … (% of conversion)” value in data set [1], in data set [2] and in data set [3] was “significantly decreased activity” throughout.

B4: HpFT-1HR: H. pylori α-1,3-fucosyltransferase variant: catalytically active domain, a heptapeptide repeat sequence and C-terminus fused His tag (protein)
chain: MFQPLLDAFIESASIEKMVSKSPPPPLKIAVANWWGDEEIKEFKKSVLYFILSQRYAITLHQNPNESSDLVFSNPLGAARKILSYQNTKRVFYTGENESPNFNLFDYAIGFDELDFNDRYLRMPLYYAHLHYEAELVNDTTAPYKLKDNSLYALKKPSHHFKENHPNLCAVVNDESDLLKRGFASFVASNANAPMRNAFYDALNSIEPVTGGGSVRNTLGYKVGNKSEFLSQYKFNLCFENSQGYGYVTEKILDAYFSHTIPIYWGSPSVAKDFNPKSFVNVHDFNNFDEAIDYIKYLHTHPNAYLDMLYENPLNTLDGKAYFYQDLSFKKILDFFKTILENDTIYHNNPFIFYRDLHEPLISIDDLRVNYLEHHHHHH
modifications: Catalytically active domain of Helicobacter pylori Alpha-(1,3)-fucosyltransferase (GenBank No.AAD07710.1) with 1 heptapeptide repeat and a C-terminal His tag
In the case of B4, the “catalytic activity … (% of conversion)” value (in the data set on Trastuzumab-G2F; in data set [1]; in data set [2]; in data set [3]) was “significantly improved catalytic activity” each time. Moreover, the “catalytic activity among the HpFT variants” value in data set [2] and in data set [3] was “relatively high catalytic activity” throughout.
